T1: human PMEL17 (Homo sapiens, UniProt P40967)
T1 construct: G-361 melanoma cell line expresses human PMEL17 at a lower level compared to the HKB11-human PMEL17 overexpressing cell line; endogenous in cells; host or cells: G-361 (human melanoma)
T1 sequence (P40967 25-661): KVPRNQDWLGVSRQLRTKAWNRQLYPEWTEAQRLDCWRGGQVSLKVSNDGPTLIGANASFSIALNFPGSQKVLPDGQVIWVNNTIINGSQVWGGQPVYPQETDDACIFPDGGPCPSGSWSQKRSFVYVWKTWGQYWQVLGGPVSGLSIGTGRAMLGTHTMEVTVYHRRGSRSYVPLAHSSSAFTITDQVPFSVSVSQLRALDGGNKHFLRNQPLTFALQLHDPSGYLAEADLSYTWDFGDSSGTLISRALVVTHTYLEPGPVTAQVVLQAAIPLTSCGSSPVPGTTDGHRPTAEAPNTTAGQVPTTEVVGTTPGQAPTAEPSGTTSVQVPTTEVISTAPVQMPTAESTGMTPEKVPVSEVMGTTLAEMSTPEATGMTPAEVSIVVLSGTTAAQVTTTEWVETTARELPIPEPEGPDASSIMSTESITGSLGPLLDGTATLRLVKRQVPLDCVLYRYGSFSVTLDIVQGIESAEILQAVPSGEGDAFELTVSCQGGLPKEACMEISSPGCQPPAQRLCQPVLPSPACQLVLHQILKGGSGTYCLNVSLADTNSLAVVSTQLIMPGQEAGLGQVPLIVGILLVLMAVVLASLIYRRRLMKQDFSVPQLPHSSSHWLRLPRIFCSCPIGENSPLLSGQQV

T2: mouse PMEL17 (Mus musculus, UniProt Q60696)
T2 construct: B16-F10 (mouse PMEL17 expressing melanoma); endogenous in cells; host or cells: B16-F10 (mouse melanoma)
T2 sequence (Q60696 24-626): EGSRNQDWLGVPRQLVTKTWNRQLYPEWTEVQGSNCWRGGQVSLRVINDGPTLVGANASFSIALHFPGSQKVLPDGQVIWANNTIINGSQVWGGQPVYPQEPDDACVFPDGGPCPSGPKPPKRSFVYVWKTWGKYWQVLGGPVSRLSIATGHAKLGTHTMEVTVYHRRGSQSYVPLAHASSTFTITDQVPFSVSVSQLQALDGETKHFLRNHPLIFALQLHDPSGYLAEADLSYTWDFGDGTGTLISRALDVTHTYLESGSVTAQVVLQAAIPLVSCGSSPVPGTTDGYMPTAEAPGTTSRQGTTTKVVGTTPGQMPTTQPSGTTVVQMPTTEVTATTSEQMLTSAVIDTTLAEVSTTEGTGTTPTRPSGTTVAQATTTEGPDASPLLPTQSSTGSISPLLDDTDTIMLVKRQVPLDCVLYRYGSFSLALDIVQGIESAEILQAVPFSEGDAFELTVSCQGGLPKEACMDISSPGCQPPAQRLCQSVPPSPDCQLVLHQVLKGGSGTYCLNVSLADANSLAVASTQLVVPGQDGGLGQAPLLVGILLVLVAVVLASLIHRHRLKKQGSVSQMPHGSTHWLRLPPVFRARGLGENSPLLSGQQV


Columns and labels:
[1] = test system: 92.1 uveal melanoma; test: Resazurin-based viability assay, 92.1 uveal melanoma cells; format: cell-based; conditions: 92.1; Table 10; read-out: GI50
Experimental: (§1) Following drug treatment for 96 or 120 hours, cell viability and proliferation were determined using a resazurin-based viability assay. Briefly, cells were incubated with a resazurin-based solution and color change was detected by absorbance with a spectrophotometer and used as a readout of cell viability. Data presented as mean of 3 independent replicates and relative to PBS-treated cells (control).
as §1, with “(control) (FIG. 6).” for “(control).”
Following drug treatment for 96 or 120 hours, cell viability and proliferation were determined using a resazurin-based viability assay. Data presented as mean of 3 independent replicates and relative to PBS-treated cells (control) (FIG. 8).
as §1

[2] = test system: 92.1-luciferase subcutaneous xenografts; test: 92.1-luciferase subcutaneous xenograft tumor growth in female nude mice; format: in vivo; conditions: single i.v. injection, FIG. 18
Experimental: Treatment (single dose i.v. injection) was performed 17 days post tumor inoculation. Values are mean±SEM; sample size, (n=5-12 mice per group). Initial tumor volume at day 0 was approximately 200-250 mm^3.
Treatments (single dose i.v. injection) were performed 17 days post tumor inoculation. Values represent mean±SEM; sample size, (n=5-6 mice per group). Initial tumor volume at day 0 was approximately 300-325 mm^3. (FIG. 16).
Treatment (single dose i.v. injection) was performed 14-17 days post tumor inoculation. Values are mean±SEM; sample size, (n=5-12 mice per group). Initial tumor volume at day 0 was approximately 200-250 mm3.

[3] = molecular target: T1, human PMEL17; test: Apparent affinity by FACS titration of IgGs on G-361 melanoma cell line; format: binding; conditions: G-361, Alexa Fluor-labelled detection antibody; read-out: FACS EC50 (nM) G-361 (Alexa Fluor)
Experimental: (§2) Purified IgGs were titrated on a variety of PMEL17 expressing and PMEL17 non expressing cell lines (for control) to determine EC50 values. Cells were harvested using Accutase, adjusted to ˜4×10^6 cells/ml into FACS buffer (PBS, 3% FCS and 0.02% Na-Azide) and kept on ice to avoid internalization. 15 μl of cell suspension/well were transferred into 384 well V-bottom plates (Greiner, Cat #781280) and incubated with 15 μl of IgGs at different concentrations (most commonly from 200 to 3.5×10−3 nM) for 1 hour at 4° C., gently shaking. Following incubation, cells were washed three times with FACS buffer. After each washing step, cells were centrifuged (250×g, 5 min, 4° C.) and carefully resuspended. 15 μl of detection antibody conjugated to PE (PE-conjugated goat anti-human IgG, F(ab′)2 fragment specific, 1:150 in FACS buffer; Jackson Immuno Research, #109-116-097) or Alexa Fluor (Alexa Fluor-conjugated goat anti-human IgG, F(ab′)2 fragment specific, 1:150 in FACS buffer; Jackson Immuno Research, #109-606-097) were added and samples were incubated for 45 minutes to 1 hour on ice in the dark, gently shaking. After 3 washing steps, cells were resuspended in 30 μl of FACS buffer and samples were measured using the IntelliCyt HTFC device. EC50 values were calculated using the Graphpad Prism software. G-361 melanoma cell line expresses human PMEL17 at a lower level compared to the HKB11-human PMEL17 overexpressing cell line, and therefore allows a more precise ranking of the clones depending on their apparent affinity on cells.
The cross-specificity of the IgGs was evaluated in does response FACS on G-361 (human melanoma), HKB11-cyno-PMEL17, HKB11-rat PMEL17 and B16-F10 (mouse PMEL17 expressing melanoma) (Table 3). […]

[4] = molecular target: T2, mouse PMEL17; test: Apparent affinity by FACS titration of IgGs on B16-F10 melanoma cells; format: binding; conditions: Alexa Fluor
Experimental: as §2
(§3) The cross-specificity of the IgGs was evaluated in does response FACS on G-361 (human melanoma), HKB11-cyno-PMEL17, HKB11-rat PMEL17 and B16-F10 (mouse PMEL17 expressing melanoma) (Table 3). Testing on G-361 was performed using a detection antibody labelled to PE. In contrast, an Alexa-Fluor labelled detection antibody had to be used for testing the candidates on the other cell lines so as to reach detectable signals.

[5] = test system: UACC-62; test: FACS titration of IgGs on UACC-62 cells; format: binding; conditions: UACC-62, PE-labelled detection antibody
Experimental: as §2

[6] = test system: PMEL17; test: Cross-reactivity (cross-specificity profile) of anti-PMEL17 IgGs in dose response FACS; format: binding; parameters: key: h/c/r/m: human/cyno/rat/mouse; h/c/r: human/cyno/rat; h/c/(m): human/cyno/mouse; h/c: human/cyno; conditions: h human, c cyno, r rat, m mouse
Experimental: as §3
IgGs were classified into several epitope groups according to their cross-specificity profiles.

Molecule	GI50 [1] [nM]	tumor growth [2]	EC50 [3] [nM]	EC50 [4] [nM]	UACC-62 (PE) [5]	Cross spe profile (based on C14 detection ab) [6]
Fc Silent G1-3J-DAR2 (E152C)-(B1) (conjugate, left off: a dimerising Fc or GST) heavy: QVQLVQSGAEVKKPGSSVKVSCKASGGTFSDYAITWVRQAPGQGLEWMGGIIPIFGTANYAQKFQGRVTITADESTSTAYMELSSLRSEDTAVYYCAREGGLLTDISYSRYWFAYWGQGTLVTVSS light: SYELTQPLSVSVALGQTARITCSGDALRDKFVYWYQQKPGQAPVLVIYDDNNRPSGIPERFSGSNSGNTATLTISRAQAGDEADYYCQSWDHSYSLVVFGGGTKLTVLGQPKAAPSVTLFPPSSEELQANKATLVCLISDFYPGAVTVAWKADSSPVKAGVETTTPSKQSNNKYAASSYLSLTPEQWKSHRSYSCQVTHEGSTVEKTVAPTECS	0.278	inhibited tumor growth in a dose-dependent manner	–	–	–	–
MOR024353: anti-PMEL17 antibody (IgG) (antibody, V domains shown) VH: QVQLVQSGAEVKKPGSSVKVSCKASGGTFSDYAISWVRQAPGQGLEWMGGIIPIFGDANYAQKFQGRVTITADESTSTAYMELSSLRSEDTAVYYCAREGSSYFYMAYWGQGTLVTVSS VL: SYELTQPLSVSVALGQTARITCSGDNIGSKLASWYQQKPGQAPVLVIYDDSNRPSGIPERFSGSNSGNTATLTISRAQAGDEADYYCAATAGDRWAYVFGGGTKLTVL	–	–	62.8	> 100	Negative	h/c
